Results reported in patent publication US20070196275A1, “Diagnostic Imaging Compositions, Their Methods Of Synthesis And Use” (priority 2001, published 2007).

What was measured:
[1] = tested on: HL60 cells and Raji cells; experiment: Flow cytometry of apoptotic cells stained with annexin V-FITC; type: cell-based, human; details: 1.0 μM, 22 hours, annexin V-FITC staining
Method: (§1) The 1:30 and 1:60 preps of PEGylated annexin V were tested for their ability to bind to cells that had been treated with Ara-C to induce apoptosis. Human leukemia HL60 or human B-cell lymphoma Raji cells (1×10^6 cells/ml each) were treated with Ara-C at 1.0 μM for 6 hours or 22 hours to induce apoptosis. The cells were then washed twice with PBS and re-suspended in binding buffer (10 mM HEPES/NaOH, pH 7.5 containing 140 mM NaCl and 2.5 mM CaCl2) at a concentration of 1×10^6 cells/ml. Five μl annexin V-FITC solution (50 μg/ml in 50 mM Tris-HCl, pH 7.5, containing 100 mM NaCl) was added into the control cells as well as treated cells. The mixtures were incubated at room temperature for 10 minutes. Apoptotic cells stained with annexin V-FITC (Sigma) were quantified with a Labsystems Fluoroskan FL flow cytometer (Helsinki, Finland) (FIG. 13). […] The cells were washed twice with PBS, centrifuged and counted for cell-associated radioactivity (FIG. 14).
FIG. 13 is a bar graph showing apoptotic index after treatment with 1.0 uM Ara-C as quantified by flow cytometry analysis using annexin V-FITC as fluorescent probe. In FIG. 13, the y-axis represents the percent apoptotic cells; the x-axis represents the time after treatment in hours. […] In FIG. 14, the y-axis represents radioactivity in cpm; the x-axis represents time after treatment in hours. […]

[2] = design: species or system Nude mice; details: mouse, in vivo; for clearance / t1/2, α / t1/2, β / terminal half-life (rounded figures): iv
Method: At predetermined intervals, blood samples (30-60 μl) were taken from the medial saphenous vein by puncture, and the radioactivity of each sample was measured with a Cobra Autogamma counter (Packard, Downers Grove, Ill.). The pharmacokinetic parameters for each radiotracer were calculated from mean blood concentration values observed over the study period using WinNonlin™ 2.1 software (Scientific Consulting, Inc., Lexington, Ky.). The mice were killed at the end of the study, and the liver, muscle, kidneys, and spleen were removed, weighed, and measured for radioactivity. The data are expressed as percentage of injected dose per gram of tissue. In FIG. 15A, the y-axis represents % Injected dose/ml blood; the x-axis represents time in hours. Squares represent Annexin V. Diamonds represent PEG-Annexin V. In FIG. 15B, the y-axis represents % Injected dose/g tissue. From left to right, the paired bars in FIG. 15B represent blood, liver, kidney, spleen, and muscle tissues, respectively. The bars on the left of the paired bars represent Annexin V. The bars on the right of the paired bars represent PEG-Annexin V.

MDA-MB-468 tumors [3] = experiment: Autoradiography and TUNEL assay; type: in vivo, mice; details: 4 days after treatment, intratumoral distribution of ^111In-DTPA-PEG-AV
From the text: Two tumors removed from each group of mice at the end of the gamma imaging session were rapidly frozen, processed, and 8-μm sections were made. The sliced sections were fixed in cold acetone, dried, and exposed to a multipurpose storage phosphor screen for 10 days. A Cyclone™ Storage Phosphor System (Packard Instrument Company, Inc., Meriden, Conn.) was used to obtain autoradiographic images. The radioactivity at selected field of view is expressed as digital light unit per millimeter square (DLU/mm^2).
DNA fragmentation was analyzed by terminal deoxynucleotidyl transferase (TdT)-uridine nick end labeling (TUNEL) using a commercial kit according to the manufacturer provided protocol (Promega, Madison, Wis.). Frozen tissue sections (8 μm) were fixed with 4% paraformaldehyde (methanol-free) for 10 minutes at room temperature. The sections were washed with PBS two times (5 minutes each) and incubated with equilibration buffer (Promega) for 10 minutes at room temperature. […] Images were recorded using an Olympus fluorescence microscope (Olympus, Melville, N.Y.) with 520 nm filter and 20× object lens. Apoptotic cells per slide view were quantified by AAB colony counting software (Advanced American Biotechnology, Fullerton, Calif.) and expressed as number per field of view (0.016 mm^2).

[4] = tested on: Ara-C treated HL60 and Raji cells (apoptotic cells); experiment: Cell binding assay of radiolabeled PEGylated annexin V; design: species or system human; details: 1.0 μM Ara-C
Method: as §1, with “14). FIG. 13 is a bar graph showing apoptotic index after treatment with 1.0 uM Ara-C as quantified by flow cytometry analysis using annexin V-FITC as fluorescent probe. In FIG. 13, the y-axis represents the percent apoptotic cells; the x-axis represents the time after treatment in hours. […] In FIG. 14, the y-axis represents radioactivity in cpm; the x-axis represents time after treatment in hours. […]” for “14).”

MDA-MB-468 tumors [5] = tested on: MDA-MB-468 tumors; design: species or system mice; details: mouse, in vivo
Method: The following materials and methods were used in this example. Human breast adenocarcinoma MDA-MB-468 cells were maintained in 1:1(v/v) Dulbecco's modified Eagle's medium (DMEM)/Ham's F-12 mixture supplemented with 10% fetal bovine serum (FBS) (Gibco Laboratories, Grand Island, N.Y.) at 37 C in 5% CO2/95% air. […] Mice in Group I were not treated and were used as a control. In Group II, mice were injected intravenous with PG-paclitaxel (PG-TXL) at an equivalent paclitaxel (Taxol, TXL) dose of 100 mg/kg 1 day before the injection of radiotracer. PG-TXL is a water-soluble polymeric conjugate of paclitaxel and poly(l-glutamic acid). […] The conjugate has the same mechanism of action as paclitaxel. […] Radioactivity of each sample was measured with the Cobra Auto-gamma Counter (Packard, Downers Grove, Ill.). The percentage of the injected dose per gram of tissue (% ID/g tissue) was calculated for each sample. In a separate experiment, tumors were histologically analyzed to quantify apoptotic index induced by drug treatments. […] Apoptosis index was scored in coded slides by microscopic examination at 400× magnification. Five fields of nonnecrotic areas were randomly selected in each histological specimen, and in each field the number of apoptotic nuclei were recorded as numbers per 100 nuclei and were expressed as a percentage. […]

Nc1ccn([C@@H]2O[C@H](CO)[C@@H](O)[C@@H]2O)c(=O)n1 [Ara-C]
increase of percentage of apoptotic cells [1]: 4-10 fold

1:15 prep ^111In-DTPA-PEG-annexin V: ^111In-labeled annexin V PEGylated with SCN-PEG-DTPA, 1:15 prep
percentage of injected dose per gram of tissue, blood [2]: 0.36±0.05%
percentage of injected dose per gram of tissue, kidney [2]: 22.35±4.74%
percentage of injected dose per gram of tissue, liver [2]: 8.37±2.76%
percentage of injected dose per gram of tissue, muscle [2]: 0.75±0.04%
percentage of injected dose per gram of tissue, spleen [2]: 6.75±0.44%
clearance [2]: 0.01 mL/h
t1/2, α [2]: 4.90 h
t1/2, β [2]: 26.3 h
terminal half-life (rounded figures) [2]: 26 h

poly (L-glutamic acid)-paclitaxel conjugate [PG-TXL]
apoptotic response of the tumor to treatment (MDA-MB-468 tumors [3]): increased apoptosis

^111In-DTPA-annexin V: ^111In-labeled annexin V with DTPA, without PEG; comparison [reference compound]
clearance [2]: 0.4 mL/h
t1/2, α [2]: 0.07 h
t1/2, β [2]: 17.4 h
terminal half-life (rounded figures) [2]: 17 h

1:60 prep of ^111In-DTPA-PEG-AV: ^111In-labeled annexin V PEGylated with SCN-PEG-DTPA at molar ratio 1:60
binding to Ara-C treated cells ([4]; Raji cells): did not show binding to the Ara-C treated cells

1:30 prep of ^111In-DTPA-PEG-AV: ^111In-labeled annexin V PEGylated with SCN-PEG-DTPA at molar ratio 1:30
change of tumor uptake 1 day after PG-TXL (MDA-MB-468 tumors [5]): slight but non-significant increase of the radiotracer in the tumor
increase of cell associated radioactivity after treatment with Ara-C ([4]; HL60 and Raji cells): 4-6 fold
